Data: patent US20220096547A1

molecular target: human TLR5 (human) (UniProt O60602); test: cell-based or functional assay
UniProt O60602, sequence (O60602 21-858): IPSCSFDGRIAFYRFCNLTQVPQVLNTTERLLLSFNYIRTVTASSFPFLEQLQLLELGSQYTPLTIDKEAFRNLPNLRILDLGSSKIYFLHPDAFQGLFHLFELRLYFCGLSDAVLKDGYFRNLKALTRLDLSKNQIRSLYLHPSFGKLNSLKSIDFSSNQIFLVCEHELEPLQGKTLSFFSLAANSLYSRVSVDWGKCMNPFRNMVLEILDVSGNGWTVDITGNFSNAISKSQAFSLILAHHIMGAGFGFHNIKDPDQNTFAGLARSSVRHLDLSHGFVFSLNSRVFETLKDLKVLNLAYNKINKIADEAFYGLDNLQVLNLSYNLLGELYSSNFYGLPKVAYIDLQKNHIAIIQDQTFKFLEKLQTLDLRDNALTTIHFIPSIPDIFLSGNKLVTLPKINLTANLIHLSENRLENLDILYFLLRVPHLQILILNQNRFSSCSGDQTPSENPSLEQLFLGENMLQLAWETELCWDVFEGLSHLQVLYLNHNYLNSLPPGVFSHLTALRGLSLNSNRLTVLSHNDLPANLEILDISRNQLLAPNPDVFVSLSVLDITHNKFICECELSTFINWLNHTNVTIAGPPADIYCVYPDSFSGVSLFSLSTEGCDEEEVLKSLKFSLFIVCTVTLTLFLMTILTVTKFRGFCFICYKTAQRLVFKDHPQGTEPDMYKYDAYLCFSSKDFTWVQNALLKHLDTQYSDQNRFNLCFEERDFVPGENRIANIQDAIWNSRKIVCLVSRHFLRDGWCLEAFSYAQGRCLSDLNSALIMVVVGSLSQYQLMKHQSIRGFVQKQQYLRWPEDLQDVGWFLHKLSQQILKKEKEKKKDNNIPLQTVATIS

| Substance | TLR5 activation activity (NF-κB SEAP reporter assay) compared to full-length flagellin [%] |
| --- | --- |
| Salmonella typhimurium flagellin fragment Flic-6a (from UniProt P06175 71-493) (ligand) | > 50 |
| Salmonella typhimurium flagellin fragment Flic-7a (from UniProt P06175 71-493) (ligand) | > 50 |
| Salmonella typhimurium flagellin fragment Flic-8a (from UniProt P06175 71-493) (ligand) | > 50 |
| Salmonella typhimurium flagellin fragment Flic-12a (from UniProt P06175 37-493) (ligand) | > 50 |
| Salmonella typhimurium flagellin fragment Flic-14a (from UniProt P06175 37-493) (ligand) | > 50 |
| Salmonella typhimurium flagellin fragment Flic-15a (from UniProt P06175 37-493) (ligand) | > 50 |
| Salmonella typhimurium flagellin fragment Flic-20a (from UniProt P06175 51-493) (ligand) | > 50 |
| Salmonella typhimurium flagellin fragment Flic-21a (from UniProt P06175 51-469) (ligand) | > 50 |
| Salmonella typhimurium flagellin fragment Flic-22a (from UniProt P06175 51-493) (ligand) | > 50 |
| Salmonella typhimurium flagellin fragment Flic-23a (from UniProt P06175 51-493) (ligand) | > 50 |
